Reference: the supplement of paper PMC7877785
± gives the uncertainty stated by the source.

Experiment: self-splicing fitness, log relative to wild type (ln ratio); higher = more splicing; Tetrahymena group I intron in knt gene, E. coli kanamycin selection, DiMSum; sequences stand for … in CUCUCU…GGAGGGAAAAGUUAUCAGGCAUGCACCUGGUAGCUAGUCUUUAAACCAAUAGAUUGCAUCGGUUUAAAAGGCAAGACCGUCAAAUUGCGGGAAAGGGGUCAACAGCCGUUCAGUACCAAGUCUCAGGGGAAACUUUGAGAUGGCCUUGCAAAGGGUAUGGUAAUAAGCUGACGGACAUGGUCCUAACCACGCAGCCAAGUCCUAAGUCAACAGAUCUUCUGUUGAUAUGGAUGCAGUUCACAGACUAAAUGUCGGUCGGGGAAGAUGUAUUCUUCUCAUAAGAUAUAGUCGGACCUCUCCUUAAUGGGAGCUAGCGGAUGAAGUGAUGCAACACUGGAGCCGCUGGGAACUAAUUUGUAUGCGAAAGUAUAUUGAUUAGUUUUGGAGUACUCGUGGUCG
Method in brief: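 Library with all eight P1ex-region intron nucleotides randomised, intron inside the knt kanamycin-resistance gene on pET-22b(+), in E. coli BL21(DE3). Cells grew overnight at 37°C or 30°C on LB agar with or without 25 μg/mL kanamycin (plus 100 μg/mL carbenicillin, 50 μM IPTG, 0.2% rhamnose), in six replicate transformations. Pooled colonies were amplicon-sequenced on Illumina HiSeq 2500. DiMSum fitness is the error-weighted combination of wild-type-normalised replicate fold changes, kanamycin versus none.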

Row | Sequence | self-splicing fitness (ln) (30 °C) | self-splicing fitness (ln) (37 °C)
1 | CGUUAGCAAUAUUACGAUAU | -3.41 ± 0.14 | -2.22 ± 0.14
2 | GAUUAGCAAUAUUACGCAUA | -2.08 ± 0.17 | -0.967 ± 0.14
3 | AAAGAGCAAUAUUACGUGCU | -3.28 ± 0.22 | -2.82 ± 0.25
4 | GCAAAGCAAUAUUACGGUAA | -0.837 ± 0.12 | -0.921 ± 0.13
5 | AUACAGCAAUAUUACGUAUA | -3.94 ± 0.26 | -2.49 ± 0.16
6 | GGCUAGCAAUAUUACGAUGU | -1.45 ± 0.084 | -0.785 ± 0.083
7 | UUAGAGCAAUAUUACGCCAA | -0.503 ± 0.16 | -0.0692 ± 0.2
8 | GUGGAGCAAUAUUACGAUUA | -2.1 ± 0.48 | -1.68 ± 0.34
9 | GCCCAGCAAUAUUACGCACA | -0.537 ± 0.092 | -0.518 ± 0.094
10 | UGUCAGCAAUAUUACGGAAG | -2.37 ± 0.14 | -0.569 ± 0.15
11 | AGCAAGCAAUAUUACGGAAU | -3.44 ± 0.15 | -0.957 ± 0.093
12 | AAUAAGCAAUAUUACGACCG | -0.621 ± 0.12 | 0.329 ± 0.16
13 | GGGCAGCAAUAUUACGCCAU | -1.69 ± 0.12 | -1.21 ± 0.13
14 | AUGUAGCAAUAUUACGCCCG | -0.83 ± 0.22 | -0.891 ± 0.33
15 | UGAAAGCAAUAUUACGCCGA | -1.61 ± 0.14 | -0.339 ± 0.14
16 | AAAGAGCAAUAUUACGGCAU | -1.83 ± 0.087 | -0.726 ± 0.097
17 | CAGUAGCAAUAUUACGUAGG | -0.361 ± 0.047 | -0.0678 ± 0.066
18 | GCCAAGCAAUAUUACGUGAU | -0.879 ± 0.053 | 0.385 ± 0.07
19 | GCCGAGCAAUAUUACGACCA | -2.62 ± 0.3 | -2.31 ± 0.31
20 | UGCCAGCAAUAUUACGUUUU | -3.79 ± 0.18 | -2.56 ± 0.2
21 | UAUGAGCAAUAUUACGUAUU |  | -3.61 ± 0.35
22 | UACCAGCAAUAUUACGCCGG | -3.31 ± 0.22 | -3.14 ± 0.37
23 | CCCGAGCAAUAUUACGUCCA | -3.48 ± 0.25 | -2.26 ± 0.24
24 | GACAAGCAAUAUUACGGCGG | -3.27 ± 0.29 | -1.87 ± 0.18
25 | GACAAGCAAUAUUACGCAGA | -3.04 ± 0.18 | -1.83 ± 0.14

Row | Sequence | self-splicing fitness (ln) (30 °C) | self-splicing fitness (ln) (37 °C)
26 | ACGAAGCAAUAUUACGUACC | -1.3 ± 0.14 | -1.17 ± 0.19
27 | GAACAGCAAUAUUACGACAU | -0.575 ± 0.011 | -0.153 ± 0.032
28 | UGUAAGCAAUAUUACGAGUG | -2.02 ± 0.13 | -0.484 ± 0.14
29 | UAACAGCAAUAUUACGACAG | -0.741 ± 0.052 | -0.435 ± 0.073
30 | UCGUAGCAAUAUUACGUUAA | -1.59 ± 0.18 | -1.16 ± 0.17
31 | CCACAGCAAUAUUACGUGAG | -0.847 ± 0.051 | -0.739 ± 0.065
32 | AGCAAGCAAUAUUACGACAA | -1.54 ± 0.15 | -0.436 ± 0.14
33 | AAUAAGCAAUAUUACGAAUG | -1.37 ± 0.13 | -0.759 ± 0.17
34 | UCACAGCAAUAUUACGCCAA | -3.45 ± 0.44 | -2.74 ± 0.38
35 | GACCAGCAAUAUUACGAAAA | -2.05 ± 0.12 | -0.391 ± 0.11
36 | CGCAAGCAAUAUUACGACAA | -2.37 ± 0.17 | -1.51 ± 0.16
37 | AGCAAGCAAUAUUACGACAG | -2.65 ± 0.14 | -1.45 ± 0.15
38 | CCGUAGCAAUAUUACGUGCA | -3.06 ± 0.21 | -2.88 ± 0.15
39 | UUCGAGCAAUAUUACGUGCU | -2.02 ± 0.18 | 
40 | CGCCAGCAAUAUUACGCGAG | -4.1 ± 0.18 | -2.97 ± 0.25
41 | AUUUAGCAAUAUUACGGAGC | -3.49 ± 0.45 | 
42 | GGGAAGCAAUAUUACGUUGC | -3.92 ± 0.42 | 
43 | AAUGAGCAAUAUUACGUUUG | -4.24 ± 0.2 | -2.33 ± 0.19
44 | UACCAGCAAUAUUACGGUGU | -3.64 ± 0.14 | -2.36 ± 0.13
45 | CCACAGCAAUAUUACGACCC | -4.02 ± 0.39 | 
46 | GGGAAGCAAUAUUACGAACA | -1.2 ± 0.13 | -0.445 ± 0.14
47 | AGGGAGCAAUAUUACGGGAG | -3.56 ± 0.2 | -2.13 ± 0.23
48 | GCGAAGCAAUAUUACGAAUA | -2.34 ± 0.19 | -1.73 ± 0.24
49 | UUCCAGCAAUAUUACGUCUC | -3.17 ± 0.23 | -1.83 ± 0.2
